Results reported in patent US20210277441A1, “METHOD OF SELECTING A POLYPEPTIDE OF INTEREST” (IMPERIAL COLLEGE INNOVATIONS LIMITED, priority 2018, published 2021).

Legend:
[1] = substrate: CC1=NCCC1; assay: Kinetics of parental MsIRED, 2-methylpyrroline reduction with NADPH; assay type: biochemical, Myxococcus stipitatus; settings: other: cofactor NADPH (0.25 mM); enzyme 1.2 uM
[2] = substrate: CC1=NCCC1; assay: Kinetics of evolved MsIRED-s, 2-methylpyrroline reduction with NADH; assay type: biochemical, Myxococcus stipitatus; settings: other: cofactor NADH (0.25 mM); enzyme 1.25 uM
[3] = substrate: CC(C)O; assay: purified protein, by the assay type; assay type: biochemical, Clostridium beijerinckii; settings: other: cofactor NADP+ (1 mM); enzyme 110 nM

B1: Myxococcus stipitatus imine reductase (MsIRED), wild type, SEQ ID NO: 34 (Myxococcus stipitatus DSM 14675) (protein)
chain: MKPTLTVIGAGRMGSALIKAFLQSGYTTTVWNRTKAKSEPLAKLGAHLADTVRDAVKRSDIIVVNVLDYDTSDQLLRQDEVTRELRGKLLVQLTSGSPALAREQETWARQHGIDYLDGAIMATPDFIGQAECALLYSGSAALFEKHRAVLNVLGGATSHVGEDVGHASALDSALLFQMWGTLFGTLQALAISRAEGIPLEKTTAFIKLTEPVTQGAVADVLTRVQQNRLTADAQTLASLEAHNVAFQHLLALCEERNIHRGVADAMYSVIREAVKAGHGKDDFAILTRFLK
Question: Which Km [1] does the source give for B1 here?
Answer: The Km was 3.56 mM mM.

Question: What about the kcat [1] of the same protein?
Answer: The kcat was 89.8 min-1 min-1.

B2: Myxococcus stipitatus imine reductase (MsIRED) variant MsIRED-s (pLS133_1), N32E/R33V/T34R/K37R, SEQ ID NO: 35 (Myxococcus stipitatus DSM 14675; … (protein)
chain: MKPTLTVIGAGRMGSALIKAFLQSGYTTTVWEVRKARSEPLAKLGAHLADTVRDAVKRSDIIVVNVLDYDTSDQLLRQDEVTRELRGKLLVQLTSGSPALAREQETWARQHGIDYLDGAIMATPDFIGQAECALLYSGSAALFEKHRAVLNVLGGATSHVGEDVGHASALDSALLFQMWGTLFGTLQALAISRAEGIPLEKTTAFIKLTEPVTQGAVADVLTRVQQNRLTADAQTLASLEAHNVAFQHLLALCEERNIHRGVADAMYSVIREAVKAGHGKDDFAILTRFLK
Question: Which Km [2] does the source give for B2 here?
Answer: Its Km is 19.57 mM mM.

Question: What about the kcat [2] of the same protein?
Answer: Its kcat is 78.1 min-1 min-1.

B3: Clostridium beijerinckii alcohol dehydrogenase (CBADH), wild type, SEQ ID NO: 1 (Clostridium beijerinckii) (protein)
chain: MKGFAMLGINKLGWIEKERPVAGSYDAIVRPLAVSPCTSDIHTVFEGALGDRKNMILGHEAVGEVVEVGSEVKDFKPGDRVIVPCTTPDWRSLEVQAGFQQHSNGMLAGWKFSNFKDGVFGEYFHVNDADMNLAILPKDMPLENAVMITDMMTTGFHGAELADIQMGSSVVVIGIGAVGLMGIAGAKLRGAGRIIGVGSRPICVEAAKFYGATDILNYKNGHIVDQVMKLTNGKGVDRVIMAGGGSETLSQAVSMVKPGGIISNINYHGSGDALLIPRVEWGCGMAHKTIKGGLCPGGRLRAEMLRDMVVYNRVDLSKLVTHVYHGFDHIEEALLLMKDKPKDLIKAVVIL
Question: What does the source list for B3?
Answer: Km [3]: 5.80 mM mM; kcat [3]: 1185.6 min-1 min-1
